Common to all, as to details: remark: other sources report otherwise
Test [1] concerns the target MHC class 1 allele A*02:01. Nature of the test: REVEAL R-score, HLA-A*02:01.
The target in test [2] is MHC class 1 allele A*02:01. In words: REVEAL kinetic score, HLA-A*02:01.
Test [3] deals with MHC class 1 allele A*02:01. Nature of the test: REVEAL on-rate assay, HLA-A*02:01.
In test [4] the target is MHC class 1 allele A*02:01. Nature of the test: REVEAL off-rate assay, HLA-A*02:01.
Test [5] concerns the target MHC class 1 allele A*02:01. In words: REVEAL peptide-MHC binding assay, HLA-A*02:01.

Molecule STFKNWPFL [SurA24 (survivin peptide antigen HLA-A24, …)] yielded a R-score in test [1] of 0. Moreover, in test [2], the Kinetic score was found to be 0. In addition, the On-rate T1/2 in test [3] worked out at 31.5 h. For the same molecule, the Off-rate T1/2 in test [4] came out at 7.2 min. The same molecule came in with an REVEAL score in test [5] of 61.9.

Source of the values: patent US20240390468A1, “SURVIVIN AND MAGE-A9 DUAL-TARGETED IMMUNOTHERAPY” (IMMUNOVACCINE TECHNOLOGIES INC., priority 2022, published 2024).
